The text below walks through data of publication doi:10.1101/2022.10.18.512811 (bioRxiv, 2022).

For data set [1], the target named is His-tagged NlpE N-terminal domain (E. coli). Nature of the data set: cross-linking.
Data set [2] deals with the molecule itself. The data set can be described thus: dimer band on denaturing SDS-PAGE.
Data set [3] concerns the molecule itself. The data set can be described thus: dimer band on denaturing SDS-PAGE. This is another data set of the same source.

Where two headings read alike, the source gives them in different places.

By stoichiometry N is commonly meant the number of molecules, sites or subunits per partner or assembly. In data set [1], “His-tagged NlpE N-terminal domain (domain or fragment)” registered a stoichiometry N of 2.

B1: C-terminally His-tagged WT NlpE expressed from pTrc99A (natural protein, E. coli, UniProt P40710 21-236, looked up)
chain: CNNRAEVDTLSPAQAAELKPMPQSWRGVLPCADCEGIETSLFLEKDGTWVMNERYLGAREEPSSFASYGTWARTADKLVLTDSKGEKSYYRAKGDALEMLDREGNPIESQFNYTLEAAQSSLPMTPMTLRGMYFYMADAATFTDCATGKRFMVANNAELERSYLAARGHSEKPVLLSVEGHFTLEGNPDTGAPTKVLAPDTAGKFYPNQDCSSLGQ
modifications: lipid-modified N-terminal cysteine (Cys21)
Consider B1, for which the “stoichiometry N” value in data set [2] is 2.

B2: purified, soluble, C-terminal His×6-tagged NlpE (natural protein, E. coli, UniProt P40710 21-236, looked up)
chain: B1 chain
For the molecule B2, in data set [3], the “stoichiometry N” value came out at 2.
